The record followed here is article PMC4822050 (2016).

Broadly, the Kd is a measure of binding affinity in units of concentration.

In assay [1] the target is T1, PHD of UHRF1 (residues 307–366) (human, UniProt Q96T88 307-366).
T1 chain: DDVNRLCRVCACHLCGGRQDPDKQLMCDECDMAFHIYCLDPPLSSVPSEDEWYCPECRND
Nature of the assay: ITC; in presence of SRA (1:1). Background: In ITC the heat of successive injections is recorded.

Assay [2] has as its target T1, PHD of UHRF1 (residues 307–366). Nature of the assay: ITC; in presence of SRA (PHD/SRA 1:1).
A further assay has as its target T2, PHD-SRA of UHRF1 (human).
T2 chain: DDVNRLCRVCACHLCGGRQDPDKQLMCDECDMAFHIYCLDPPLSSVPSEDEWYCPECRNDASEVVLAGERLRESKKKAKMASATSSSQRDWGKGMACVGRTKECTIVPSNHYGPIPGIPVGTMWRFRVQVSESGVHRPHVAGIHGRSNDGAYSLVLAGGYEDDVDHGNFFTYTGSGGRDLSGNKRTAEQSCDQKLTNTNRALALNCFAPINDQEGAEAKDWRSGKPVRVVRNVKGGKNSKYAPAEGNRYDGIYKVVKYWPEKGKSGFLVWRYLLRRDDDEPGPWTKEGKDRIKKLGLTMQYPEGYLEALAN
In words: ITC.

Assay [3] has as its target T1, PHD of UHRF1 (residues 307–366). In words: ITC.
Assay [4] has the same target. In words: ITC; in presence of SRA (PHD/SRA 1:2).
Assay [5] shares this target. In words: ITC; in presence of SRA (1:2).
For assay [6], the target named is T3, TTD of UHRF1 (residues 134–285) (human, UniProt Q96T88 134-285).
T3 chain: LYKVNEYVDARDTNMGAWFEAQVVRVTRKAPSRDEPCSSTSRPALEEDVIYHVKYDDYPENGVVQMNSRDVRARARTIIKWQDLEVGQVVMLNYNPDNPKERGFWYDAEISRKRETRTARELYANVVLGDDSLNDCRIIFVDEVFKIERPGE
Nature of the assay: ITC; in presence of Spacer S651D (1:2).

The target of assay [7] is T4, TTD–PHD of UHRF1 (residues 134–366) (human, UniProt Q96T88 134-366).
T4 chain: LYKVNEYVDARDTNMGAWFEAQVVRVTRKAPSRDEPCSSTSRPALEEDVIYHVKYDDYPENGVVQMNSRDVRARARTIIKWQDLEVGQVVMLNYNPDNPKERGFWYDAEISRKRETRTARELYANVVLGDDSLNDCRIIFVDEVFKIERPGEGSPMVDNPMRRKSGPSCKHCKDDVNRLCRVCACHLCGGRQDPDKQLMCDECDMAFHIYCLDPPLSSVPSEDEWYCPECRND
Nature of the assay: ITC; in presence of Spacer (1:2).

Assay [8] concerns the target T3, TTD of UHRF1 (residues 134–285). Nature of the assay: ITC; in presence of Spacer K648D (1:2).
Assay [9] shares this target. In words: ITC; in presence of SRA.
Assay [10] deals with T4, TTD–PHD of UHRF1 (residues 134–366). In words: ITC; in presence of Spacer (TTD-PHD/Spacer 1:2).
The target in assay [11] is T3, TTD of UHRF1 (residues 134–285). In words: ITC.
In the next assay the target is T5, UHRF1^Δ627–674 (human, UniProt Q96T88 1-793, Δ627–674).
T5 sequence: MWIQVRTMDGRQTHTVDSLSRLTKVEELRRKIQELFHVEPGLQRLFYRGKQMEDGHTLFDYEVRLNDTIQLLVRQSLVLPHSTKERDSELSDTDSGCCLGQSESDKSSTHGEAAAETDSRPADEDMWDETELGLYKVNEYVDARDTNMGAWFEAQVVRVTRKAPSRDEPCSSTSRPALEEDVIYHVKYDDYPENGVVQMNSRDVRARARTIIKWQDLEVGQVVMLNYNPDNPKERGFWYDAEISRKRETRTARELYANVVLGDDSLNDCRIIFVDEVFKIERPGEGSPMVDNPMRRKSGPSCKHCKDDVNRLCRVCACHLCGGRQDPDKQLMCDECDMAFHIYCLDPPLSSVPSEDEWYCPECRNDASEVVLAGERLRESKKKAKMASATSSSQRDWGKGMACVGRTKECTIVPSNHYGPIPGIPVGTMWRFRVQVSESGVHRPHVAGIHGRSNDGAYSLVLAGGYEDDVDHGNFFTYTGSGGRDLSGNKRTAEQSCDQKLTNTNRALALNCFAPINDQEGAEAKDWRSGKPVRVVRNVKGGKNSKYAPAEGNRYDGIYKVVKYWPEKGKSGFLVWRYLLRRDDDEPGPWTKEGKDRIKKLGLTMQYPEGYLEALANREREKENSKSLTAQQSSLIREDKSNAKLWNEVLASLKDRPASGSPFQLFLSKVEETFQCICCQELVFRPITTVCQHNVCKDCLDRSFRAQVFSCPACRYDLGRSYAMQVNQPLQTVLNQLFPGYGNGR
Nature of the assay: ITC.

Assay [12] concerns the target T3, TTD of UHRF1 (residues 134–285). In words: ITC; in presence of Spacer R649A (1:2).
Assay [13] deals with T6, R295D/R296D mutant of full-length UHRF1 (human, UniProt Q96T88 1-793, R295D | R296D).
T6 sequence: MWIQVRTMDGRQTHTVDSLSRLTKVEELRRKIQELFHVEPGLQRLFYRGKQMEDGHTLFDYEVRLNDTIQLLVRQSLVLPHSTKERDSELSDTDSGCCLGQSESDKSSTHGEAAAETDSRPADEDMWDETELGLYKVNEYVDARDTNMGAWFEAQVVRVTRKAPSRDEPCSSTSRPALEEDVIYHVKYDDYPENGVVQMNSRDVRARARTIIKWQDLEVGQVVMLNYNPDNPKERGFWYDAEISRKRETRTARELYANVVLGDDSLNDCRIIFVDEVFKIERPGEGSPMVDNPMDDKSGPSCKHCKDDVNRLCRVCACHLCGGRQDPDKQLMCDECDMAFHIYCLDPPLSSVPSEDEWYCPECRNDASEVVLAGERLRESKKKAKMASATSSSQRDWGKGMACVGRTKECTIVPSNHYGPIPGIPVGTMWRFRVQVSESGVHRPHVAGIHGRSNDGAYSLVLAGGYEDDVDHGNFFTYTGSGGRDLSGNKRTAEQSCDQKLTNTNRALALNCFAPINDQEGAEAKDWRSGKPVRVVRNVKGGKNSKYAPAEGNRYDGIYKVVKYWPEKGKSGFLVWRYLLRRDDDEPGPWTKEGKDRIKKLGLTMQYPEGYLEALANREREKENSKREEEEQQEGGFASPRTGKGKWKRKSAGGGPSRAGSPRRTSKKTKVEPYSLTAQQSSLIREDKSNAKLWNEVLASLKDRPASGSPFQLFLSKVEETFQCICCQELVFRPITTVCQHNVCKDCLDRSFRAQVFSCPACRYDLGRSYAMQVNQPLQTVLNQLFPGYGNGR
Nature of the assay: ITC.

ARTKQTARKSTGGKAPR [H3 peptide (1–17)]: the dissociation constant (Kd) in [1] was 2040 nM; in assay [2], 2040 nM; with PHD-SRA of UHRF1, 5790 nM; in assay [3] it was 770 nM; in assay [4], 4640 nM; in [5], 4640 nM.
On to ARTKQTARKSTGGKAPR (trimethyl-lysine at K9) [H3K9me3 peptide (1–17)], for which the Kd in assay [6] stood at 1280 nM; in [7], 1630 nM; in assay [8], 6580 nM; in [9] it was 880 nM; in [10] it was 1630 nM; in [11] it was 990 nM. The Kd worked out at 1190 nM with UHRF1^Δ627–674, 2890 nM in assay [12] and 36800 nM in assay [13].
